Data reported in patent US20210371537A1 (MERRIMACK PHARMACEUTICALS, published 2021).
Where a chain is given by its changes, count along the chain named.

B1: ABV2.7 (antibody, human IgG1, kappa, V domains shown)
VH: QVQLVQSGSELKKPGASVKVSCKASGYTFTTFGMSWVRQAPGQGLEWMGWINTYSGVPTYAQGFTGRFVFSLDTSVSTAYLQISSLKAEDTAVYFCARRSNFAYWGQGTLVTVSS
VL: DIVLTQSPDSLAVSLGERATINCRASESLTASGNSFMHWYQQKPGQPPKLLIYRASNLESGVPDRFSGSGSRTDFTLTISSLQAEDVAVYYCQQSRHVNWTFGGGTKVEIKR
B2: ABV2.1 (ABV2 hum #2 HD3) (antibody, V domains shown)
VH: B1 VH
VL: DIVLTQSPDSLAVSLGERATINCRASESVDSSGNSFMHWYQQKPGQPPKLLIYRASNLESGVPDRFSGSGSRTDFTLTISSLQAEDVAVYYCQQSNEDPWTFGGGTKVEIK
notes: humanized ABV2; also called parental antibody
B3: ABV2.13 (antibody, human IgG1, kappa, V domains shown)
VH: B1 VH with T59H
VL: DIVLTQSPDSLAVSLGERATINCRASQTVDSSGNSFMHWYQQKPGQPPKLLIYLGNRLESGVPDRFSGSGSRTDFTLTISSLQAEDVAVYYCQQSNEDPWTFGGGTKVEIKR
B4: ABV2.15 (antibody, human IgG1, kappa, V domains shown)
VH: B1 VH with T59H
VL: B1 VL
B5: ABV2 chimera (ABV2c) (antibody, human IgG1, kappa, V domains shown)
VH: QIQLVQSGPELKKPGETVKISCKASGYTFTTFGMSWVKQAPGKGLKWMGWINTYSGVPTYADDFKGRFAFSLETSASTAYLQINNLKNEDTATYFCARRSNFAYWGQGTLVTVSA
VL: DIVLTQSPASLAVSLGQRATISCRASESVDSSGNSFMHWYQQKAGQSFKLLIYRASNLESGIPARFSGSGSRTDFTLTINPVEADDVATYYCQQSNEDPWTFGGGTKLEIKR
notes: VH and VL of mouse ABV2 fused with human IgG1 and human kappa constant regions; also called ABVc; chimeric anti-human TNFR2 antibody

Legend:
[1] = target: his-tagged mouse TNFR2 (mouse) (UniProt P25119); assay: blocking ELISA: His-tagged mouse TNFR2 coated, antibody titrated, then recombinant mouse TNF-alpha added and detected; OD450 normalized
Chain of his-tagged mouse TNFR2 (mouse) (P25119 23-258 limits assumed): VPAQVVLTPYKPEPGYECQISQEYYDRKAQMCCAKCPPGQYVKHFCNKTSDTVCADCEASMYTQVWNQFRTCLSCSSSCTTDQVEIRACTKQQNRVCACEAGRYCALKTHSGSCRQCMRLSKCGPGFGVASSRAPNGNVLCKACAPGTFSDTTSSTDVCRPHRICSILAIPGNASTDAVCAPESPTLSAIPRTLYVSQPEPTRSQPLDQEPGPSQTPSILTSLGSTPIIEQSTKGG

[2] = target: T1, human TNFR2 on GloResponse NF-kB-RE-luc2p HEK293 reporter cells (human, UniProt P20333 23-461); assay: cell-based or functional assay
T1 sequence: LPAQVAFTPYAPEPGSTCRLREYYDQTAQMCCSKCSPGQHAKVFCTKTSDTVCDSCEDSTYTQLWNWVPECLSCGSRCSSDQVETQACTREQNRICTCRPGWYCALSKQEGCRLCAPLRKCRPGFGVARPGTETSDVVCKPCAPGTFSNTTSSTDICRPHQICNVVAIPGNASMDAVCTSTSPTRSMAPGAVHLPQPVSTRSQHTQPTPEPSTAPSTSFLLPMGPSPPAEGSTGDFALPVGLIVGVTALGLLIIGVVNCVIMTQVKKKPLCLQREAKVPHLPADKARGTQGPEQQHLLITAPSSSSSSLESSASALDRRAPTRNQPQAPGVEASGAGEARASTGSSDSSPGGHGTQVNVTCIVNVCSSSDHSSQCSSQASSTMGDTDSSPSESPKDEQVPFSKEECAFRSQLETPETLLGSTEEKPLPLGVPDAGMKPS

human TNFR2-His = target: T2, human TNFR2-His (human, UniProt P20333 23-257); assay: BLI, antibody on anti-Human Fc Capture (AHC) biosensors, human TNFR2-His in solution
T2 construct: not shown: His tag
T2 sequence: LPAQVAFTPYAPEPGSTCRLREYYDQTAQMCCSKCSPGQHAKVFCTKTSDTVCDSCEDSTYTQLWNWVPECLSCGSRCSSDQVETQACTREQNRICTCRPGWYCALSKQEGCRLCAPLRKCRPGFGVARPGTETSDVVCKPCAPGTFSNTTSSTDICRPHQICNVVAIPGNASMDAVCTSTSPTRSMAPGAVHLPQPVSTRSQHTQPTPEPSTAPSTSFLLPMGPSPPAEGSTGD
Method: Binding affinities for human TNFR2 of the affinity-matured anti-human TNFR2 antibodies generated in Example 30 were measured by bio-layer interferometry (BLI). Briefly, a BLI kinetic assay was performed using anti-Human Fc Capture (AHC) biosensors (ForteBio) under the following conditions: (a) loading of antibody (4 μg/mL) for 60 sec, (b) baseline for 60 sec, (d) association with human TNFR2-His ([…]) for 300 sec, and (e) dissociation for 300 sec.

Molecule	IC50 (read off the curve) [1] [nM]	EC50 in stimulating NF-kB activity [2] [µg/mL]	Kd (human TNFR2-His) [nM]	EC50 of induced NF-kB activity [2] [µg/mL]
54.7 (Bioxcell) (antibody)	2	–	–	–
B1	–	10.8	0.3	–
B2	–	–	4.42	1.6
B3	–	4.1	1.59	–
B4	–	9.3	0.158	5.3
B5	–	8.6	0.689	–
